Measurements reported in patent US20230270832A1, “MAGEA1 IMMUNOGENIC PEPTIDES, BINDING PROTEINS RECOGNIZING MAGEA1 IMMUNOGENIC PEPTIDES, AND USES THEREOF” (TScan Therapeutics, Inc., priority 2021, published 2023).

Assays:
[1] = system: cancer cells that express MAGEA1; experiment: T cell recognition assay on cancer cell lines; type: cell-based, human; settings: IFNγ release, CD137/CD69 double-positive staining
Procedure: To detect reactivity to cancer cell lines, wild-type cancer cell lines were seeded in a 96-well flat bottom plate and rested overnight at 37° C. in 5% CO2. On the following day, T cells were thawed, washed in complete RPMI-1640 medium, and added to the wells for an effector to target (E:T) ratio of 1:1 for INFγ measurement or 1:4 for flow cytometry analysis of activation-induced markers. The co-culture was incubated overnight. Cells were then harvested by pipetting, transferred to V-bottom 96-well plates, and centrifuged at 2,000 rpm for 2 minutes. The supernatant was collected for IFNγ measurement using a human IFNγ 3rd generation single-plex assay (Protein Simple). For flow cytometry analysis (Cytoflex S™ instrument, Beckman Coulter), cell pellets were washed with FACS buffer (PBS, 0.5% BSA, 2 mM EDTA) and stained for activation-induced markers, including PE-conjugated anti-CD137 (Miltenyi), AF647-conjugated anti-CD69 (Biolegend), and BV421-conjugated anti-CD8 (BioLegend).
Cancer cell lines were purchased from ATCC (Manassas, Vα.) and HEK293T cells were originally from Takara Bio (Shiga, Japan). All media were supplemented with […], except U266B1 which required 15% FBS, and 1% penicillin and incubated at 37° C. in 5% CO2. A101D (high MAGE-A1 expresing cells; TPM: 359), A2058 (medium MAGE-A1 expresing cells; TPM: 128), HS294T, and HEK293T cells were maintained in complete DMEM. SK-MEL-5 was cultured in complete EMEM, whereas U266B1, NCIH1437 and 786-0 required complete RPMI. Untransduced cancer cells were maintained in preparation for the T cell recognition assay, and 10^6 cells of each cell line were introduced with Incucyte® NucLight™ Red lentivirus reagent (Sartorius, Gottingen, Germany) Positively-labeled cells were selected using 1.5 ug/mL of puromycin over 72 hours.

[2] = biological target: T1, epitope from MAGEA1 presented by HLA C*07:02 (Homo sapiens, UniProt P10321+P43355, DEL298-309); experiment: Identification of MAGEA1-reactive TCRs from pool of TCR-transduced T cells (CD137/CD69 sorting, TCR sequencing); type: cell-based; settings: target cells transduced with MAGEA1 90-mer
T1 construct: an individual 90-amino acid fragments representing the top-scoring MAGEA1 tile from the screen; expressed in transfected cells; host or cells: MHC monoallelic C*07:02 HEK293T cells, lentivirally transduced with the MAGEA1 90-mer
Excerpt: Ten orphan TCRs from this patient were pooled together to identify their cognate antigens using the genome-wide TargetScan technology. This screen identified MAGEA1 as a novel target. […] Note that the term “TCR32-39” may also be known as “TCR39” and the term “TCR32-41” may also be known as “TCR41”.
To identify the corresponding TCR from the pool of TCR-transduced T cells, Ml-IC monoallelic C*07:02 HEK293T cells engineered to express the MAGEA1 90mer were co-cultured with the pool of T cells at an E:T ratio of 1:1 for 16-24 hours. The T cells were mixed, collected by pipetting, and labeled with a CD137 microbead kit (Miltenyi) following the manufacturer's instructions. In brief, T cells were first stained with PE-labeled anti-CD137 and AF647-labeled anti-CD69 (BioLegend), washed, and then labeled with anti-PE microbeads. Labeled cells were enriched with an autoMACS® Pro separator (Miltenyi) and CD137 and CD69 double-positive cells were sorted on a MoFlo® Astrios™ Cell Sorter (Beckman Coulter). Genomic DNA was extracted from the sorted cells and the TCR expression cassette was PCR amplified and prepared for next generation sequencing (NGS).

B1: TCR 32-39: T cell receptor recognizing MAGEA1 epitope presented by HLA-C*07:02; alpha TRAV29-DV5/TRAJ43, beta TRBV18/TRBJ2-7; wild type, HM and MGTM sequences listed (protein)
TCR alpha: DQQVKQNSPSLSVQEGRISILNCDYTNSMFDYFLWYKKYPAEGPTFLISISSIKDKNEDGRFTVFLNKSAKHLSLHIVPSQPGDSAVYFCAASAQNNDMRFGAGTRLTVKPNIQNPEPAVYQLKDPRSQDSTLCLFTDFDSQINVPKTMESGTFITDKCVLDMKAMDSKSNGAIAWSNQTSFTCQDIFKETNATYPSSDVPCDATLTEKSFETDMNLNFQNLLVMVLRILLLKVAGFNLLMTLRLWSS
TCR beta: NAGVMQNPRHLVRRRGQEARLRCSPMKGHSHVYWYRQLPEEGLKFMVYLQKENIIDESGMPKERFSAEFPKEGPSILRIQQVVRGDSAAYFCASSPSYEQYFGPGTRLTVTEDLRNVTPPKVSLFEPSKAEIANKQKATLVCLARGFFPDHVELSWWVNGKEVHSGVCTDPQAYKESNYSYCLSSRLRVSATFWHNPRNHFRCQVQFHGLSEEDKWPEGSPKPVTQNISAEAWGRADCGITSASYQQGVLSATILYEILLGKATLYAVLVSTLVVMAMVKRKNS
In the case of B1, the “recognition of cancer cells” value [1] is reported as “recognize cancer cells that express MAGEA1”, the “recognition of cancer cells” value ([1]; listed as TCR 39) is reported as “recognize” and the “recognition of MAGEA1 epitope / identification as MAGEA1-reactive TCR” value ([2]; listed as HN-32-39) is reported as “recognizing the same novel epitope from MAGEA1 presented by HLA C*07:02”. The “recognition of MAGEA1 epitope / identification as MAGEA1-reactive TCR” value ([2]; listed as TCR 39) was “hits”.
